Assay results reported in PMC11640050.

The substances below were run against Rictor (R28 cells) (assay: co-IP (Rictor IP) with DSP crosslinker, western blot band quantification). Conditions: TNF+HG treatment.

Compared with “3X-FLAG-tagged wild-type HSPB4 (αA-crystallin) (from UniProt P02489) T148D”, “3X-FLAG-tagged wild-type HSPB4 (αA-crystallin) (from UniProt P02489) R49A” is higher in ratio to parent: 0.11 for the first, 0.26 for the second.

Going from “3X-FLAG-tagged wild-type HSPB4 (αA-crystallin) (from UniProt P02489) R21A” to “3X-FLAG-tagged wild-type HSPB4 (αA-crystallin) (from UniProt P02489) T148A”, the ratio to parent rises from 0.35 to 0.75.
